Patent US20220259593A1, “CONTROL OF MAMMALIAN GENE DOSAGE USING CRISPR” (The Regents of the University of California, priority 2019, published 2022)
Where a chain is given by its changes, count along the chain named.

B1: cr532 (nucleic acid)
guide: GTTTAAGAGCTAAGCTGGAAACAGCATAGCAAGTTTAAATAAGGCTAGTCCGTTATCAACGTGAAAACGTGACTCCGAGTCGGAGTT
modifications: listed as DNA, chemistry not fully specified
B2: cr379 (nucleic acid)
guide: B1 guide with A26C, G61T, C68A, A72G, T74A, A84T, T86C
modifications: listed as DNA, chemistry not fully specified
B3: cr907 (nucleic acid)
guide: B1 guide with G52A, G61T, A64T, C68A, A72G, T74A, G79T, A84T, T86C
modifications: listed as DNA, chemistry not fully specified
B4: cr965 (nucleic acid)
guide: B1 guide with C45G, G48C, G61T, C68A, A72G, T74C, C75T, G83A, A84G, T86C
modifications: listed as DNA, chemistry not fully specified
B5: cr046 (nucleic acid)
guide: B1 guide with T2G, G7C, G61T, C68A, A72G, T74A, A84T, T86C
modifications: listed as DNA, chemistry not fully specified
B6: cr277 (nucleic acid)
guide: GTTTAAGAGCTAAGCTGGAAACAGCATAGCAAGTTTAAATAAAGCTAGTCTGTTATCAACTAGAAATAGTGGCACAGAGTCTGTGCT
modifications: listed as DNA, chemistry not fully specified
B7: cr246 (nucleic acid)
guide: B6 guide with T40A, A43G, A47G, T51C, A62T, T67A, A76C, T82G
modifications: listed as DNA, chemistry not fully specified
B8: cr992 (nucleic acid)
guide: B6 guide with A28T, A43G, T51C, G52A, A62T, T67A, A76C, T82G
modifications: listed as DNA, chemistry not fully specified
B9: cr696 (nucleic acid)
guide: B6 guide with A31G, A43G, A47C, T51C, A58C, A62T, T67A, A76C, T82G
modifications: listed as DNA, chemistry not fully specified
B10: cr110 (nucleic acid)
guide: B6 guide with A43G, C45A, G48T, T51C, A62T, T67A, C75T, A76T, T82A, G83A
modifications: listed as DNA, chemistry not fully specified
B11: cr217 (nucleic acid)
guide: B6 guide with G33T, A43G, T51C, A62T, A65C, T67A, A76C, T82G
modifications: listed as DNA, chemistry not fully specified
B12: cr972 (nucleic acid)
guide: B1 guide with G44T, C45G, G48C, C50A, G61C, C68G, A72G, T74A, A84T, T86C
modifications: listed as DNA, chemistry not fully specified
B13: cr654 (nucleic acid)
guide: B6 guide with T34A, A43G, T51C, A62T, A65T, T67A, A76C, T82G
modifications: listed as DNA, chemistry not fully specified
B14: cr374 (nucleic acid)
guide: B6 guide with A43G, C45A, T51C, A62T, T67A, A76C, T82G
modifications: listed as DNA, chemistry not fully specified
B15: cr076 (nucleic acid)
guide: B6 guide with G1A, T2A, A43G, T51C, A62T, T67A, A76C, T82G
modifications: listed as DNA, chemistry not fully specified
B16: cr073 (nucleic acid)
guide: B6 guide with A5T, A8C, A43G, T51C, A62T, T67A, A76C, T82G
modifications: listed as DNA, chemistry not fully specified

The molecules below were run on K562 CRISPRi cells (assay: Constant region variant library pooled growth screen, K562). Conditions: sgRNA constant region variants; activity relative to the original, un-modified constant region cr995.
Assay type: cell-based, human
Procedure, shortened: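 Relative activity expresses each targeting sequence:constant region pair's phenotype over that of the unmodified constant region. Pooled growth screen ran in K562 CRISPRi cells in duplicate spinner-flask replicates, with puromycin selection and 4–8 days' growth at >2000× coverage; library paired variants with 36 targeting sequences.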

Going from B1 to B2, the Mean relative activity falls from 1.093 to 1.041.

Same assay, conditions: sgRNA constant region variants; activity relative to the unmodified constant region cr995

First: B3
Second: B4
The Mean relative activity of the first is higher: 0.2821 for the first, 0.2572 for the second.

Going from B5 to B6, the Mean relative activity rises from 0.2592 to 0.2732.

Going from B7 to B8, the Mean relative activity rises from 0.2779 to 0.2785.

Going from B9 to B10, the Mean relative activity falls from 0.2553 to 0.2547.

First: B11
Second: B12
The Mean relative activity of the first is higher: 0.2802 for the first, 0.2767 for the second.

Compared with B13, B14 is lower in Mean relative activity: 0.2692 for the first, 0.2686 for the second.

Going from B15 to B16, the Mean relative activity falls from 0.2741 to 0.265.
